# Source: patent US20260184814A1, “BROADLY NE[…] INFLUENZA NEURAMINIDASE” (priority 2022, published 2026)
# B1: FNI9-v13.8 (protein)
# heavy chain: QVQLVQSGAEVKEPGSSVTVSCKASGGSFNNQAISWVRQAPGQGLEWMGGIFPISGTPTSAQRFQGRVTFTADESTTTVYMDLSSLRSDDTAVYYCARAGSDYFNRDLGWENYYFASWGQGTLVTVSS
# light chain: EIVMTQSPATLSVSPGERATLSCRASRSVSSNLAWYQQKPGQAPRLLIYDASTRATGFSARFAGSGSGTEFTLTISSLQSEDSAIYYCQQYNNWPPWTFGQGTKVEIK
# Legend:
# [1] = test system: NA-16: N2 from A/Switzerland/8060/2017
# [2] = test system: NA-18: N2 from A/Hong-Kong/2671/2019
# [3] = test system: NA-1: N1 from A/Vietnam/1203/2004
# [4] = test system: NA-17: N2 from A/South_Australia/34/2019
# [5] = test system: H5N6_NA_A_Hangzhou_01_2021
# [6] = test system: NA-5: N2 from A/Tanzania/205/2010
# [7] = test system: H7N3_NA_A_Ck_Ja_PAVX17170_2017
# [8] = test system: NA-19: N2 from A/Tanzania/205/2010 (82-469) S245NS247T
molecule,measurement,setting,value
B1,MUNANA vs NA antigens | C,[1],834.9 µg/mL
same,MUNANA vs NA antigens | E,[2],832.7 µg/mL
same,ELLA vs pseudoviruses | M,H7N9_NA_A_Anhui_1_2013,1.701 µg/mL
same,MUNANA vs NA antigens | A,[3],30.6 µg/mL
same,MUNANA vs NA antigens | D,[4],80455 µg/mL
same,ELLA vs pseudoviruses | K,H7N7_NA_A_Ck_621572_03,53.76 µg/mL
same,ELLA vs pseudoviruses | J,[5],2.03 µg/mL
same,MUNANA vs NA antigens | B,[6],158.3 µg/mL
same,ELLA vs pseudoviruses | H,[7],11.57 µg/mL
same,MUNANA vs NA antigens | F,[8],1073 µg/mL
